As a reminder, the stoichiometry N is the number of molecules, sites or subunits per partner or assembly.

Data set [1] concerns the molecule itself. Briefly: crystal structure; Sso-PfMCM with Mg/ADP, hanging drop, 100 mM HEPES pH 7.6, 350 mM MgCl2, 3% PEG 3350; space group P6_(3), hexamer on a crystallographic threefold axis; 2.70 Å.
Data set [2] deals with the molecule itself. Briefly: crystal structure; PfMCMAAA with Mg/ADP, hanging drop, 50 mM sodium cacodylate pH 6.0, 50 mM magnesium acetate, 30% MPD, 5% glycerol; space group P1, 16 monomers in the asymmetric unit; 3.80 Å.

B1: Sso-PfMCM chimera (Sulfolobus solfataricus MCM N-terminal domain fused to Pyrococcus furiosus MCM AAA+ ATPase domain) (enzyme, UniProt Q9UXG1 1-269, looked up)
chain: MEIPSKQIDYRDVFIEFLTTFKGNNNQNKYIERINELVAYRKKSLIIEFSDVLSFNENLAYEIINNTKIILPILEGALYDHILQLDPTYQRDIEKVHVRIVGIPRVIELRKIRSTDIGKLITIDGILVKVTPVKERIYKATYKHIHPDCMQEFEWPEDEEMPEVLEMPTICPKCGKPGQFRLIPEKTKLIDWQKAVIQERPEEVPSGQLPRQLEIILEDDLVDSARPGDRVKVTGILDIKQDSPVKRGSRAVFDIYMKVSSIEVSQKVLQELEISPEEEQIIKELAKRKDIVDAIVDSIAPAIYGYKEVKKGIALALFGGVSRKLPDGTRLRGDIHVLLVGDPGVAKSQILRYVANLAPRAIYTSGKSSSAAGLTAAAVRDEFTGGWVLEAGALVLADGGYALIDELDKMSDRDRSVIHEALEQQTISISKAGITATLNARTTVIAAANPKQGRFNRMKNPFEQIDLPPTLLSRFDLIFVLIDEPDDKIDSEVARHILRVRRGESEVVAPKIPHEILRKYIAYARKNIHPVISEEAMEEIEKYYVRMRKSVKKTKGEEEGIPPIPITARQLEALIRLSEAHARMRLSPIVTREDAREAIKLMEYTLKQIAMD
notes: SsoMCM N-terminal domain (SsoMCMN), Sulfolobus solfataricus MCM, aa 1-269; amplified from S. solfataricus genomic DNA (ATCC); PfMCM AAA+ domain (PfMCMAAA), Pyrococcus furiosus MCM, aa 257-361/729-966 = aa 257-966 with its intein (aa 362-728) genetically removed; lacks the C-terminal helix-turn-helix domain (aa 967-1049); numbers are database (intein-containing) numbers; Crystallised with Mg/ADP; …
On to B1, for which the “stoichiometry N” value in data set [1] is 6.

B2: Pyrococcus furiosus MCM AAA+ ATPase domain, crystallized construct (aa 263-361/729-966) (domain or fragment, UniProt Q8U3I4 263-966, looked up)
chain: PEEEQIIKELAKRKDIVDAIVDSIAPAIYGYKEVKKGIALALFGGVSRKLPDGTRLRGDIHVLLVGDPGVAKSQILRYVANLAPRAIYTSGKSSSAAGLTAAAVRDEFTGGWVLEAGALVLADGGYALIDELDKMSDRDRSVIHEALEQQTISISKAGITATLNARTTVIAAANPKQGRFNRMKNPFEQIDLPPTLLSRFDLIFVLIDEPDDKIDSEVARHILRVRRGESEVVAPKIPHEILRKYIAYARKNIHPVISEEAMEEIEKYYVRMRKSVKKTKGEEEGIPPIPITARQLEALIRLSEAHARMRLSPIVTREDAREAIKLMEYTLKQIAMD
notes: PfMCM AAA+ domain, Pyrococcus furiosus MCM, aa 263-361/729-966 (intein aa 362-728 genetically removed); amplified from P. furiosus genomic DNA (ATCC); numbers are database (intein-containing) numbers; A different construct (aa 252-361/729-1049) was used for the unwinding experiments and is not this molecule; also called PfMCMAAA; PfMCM-AAA; not shown: His6, N-terminal, cleaved; SUMO, N-terminal, …
With B2, in data set [2], the “stoichiometry N” value is 16.

For the origin of these results see publication PMC4359371, “Analysis of the crystal structure of an active MCM hexamer” (eLife, 2014).
